Laboratory results reported in PMC5663869.

Columns and labels:
[1] = target: BAZ2B PHD–BRD (human) (UniProt Q9UIF8); experiment: ITC; iTC200, 25 °C; 150–260 μM sample, 1.5–4 mM titrant; one-site binding model; n = 4
[2] = target: BAZ2B PHD domain (human) (UniProt Q9UIF8); experiment: as above
[3] = target: H3K4me1 (1-21); experiment: ITC; iTC200, 25 °C, stirring 800 rpm; sample 150–260 μM, titrant 1.5–4 mM; one-site binding model; the figure legends on these data give mean ± S.D. (n = 4)
[4] = target: H3T6C (1-21); experiment: as above
Chain of H3T6C (1-21) (peptide, as listed by the source T6C (stands in the printed letters)): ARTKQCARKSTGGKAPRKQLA

[5] = target: H3K4me2 (1-21); experiment: as above
[6] = target: H3K4me3 (1-21); experiment: as above
[7] = target: H3K14ac T6C; experiment: as above
[8] = target: H3K4me3K14ac; experiment: as above
[9] = target: H3K4me2K14ac; experiment: as above
[10] = target: H3K4me1K14ac; experiment: as above
[11] = target: BAZ2B PHD–BRD (human) (UniProt Q9UIF8); experiment: NMR titration; H3K14ac titrated into 15N-labelled PHD–BRD at peptide/protein ratios 0.5, 1, 1.5, 2 and 4; Kd estimated apart from BRD and from PHD residues

Chain of BAZ2B PHD domain (human) (Q9UIF8 whole entry, the tested form may be a part): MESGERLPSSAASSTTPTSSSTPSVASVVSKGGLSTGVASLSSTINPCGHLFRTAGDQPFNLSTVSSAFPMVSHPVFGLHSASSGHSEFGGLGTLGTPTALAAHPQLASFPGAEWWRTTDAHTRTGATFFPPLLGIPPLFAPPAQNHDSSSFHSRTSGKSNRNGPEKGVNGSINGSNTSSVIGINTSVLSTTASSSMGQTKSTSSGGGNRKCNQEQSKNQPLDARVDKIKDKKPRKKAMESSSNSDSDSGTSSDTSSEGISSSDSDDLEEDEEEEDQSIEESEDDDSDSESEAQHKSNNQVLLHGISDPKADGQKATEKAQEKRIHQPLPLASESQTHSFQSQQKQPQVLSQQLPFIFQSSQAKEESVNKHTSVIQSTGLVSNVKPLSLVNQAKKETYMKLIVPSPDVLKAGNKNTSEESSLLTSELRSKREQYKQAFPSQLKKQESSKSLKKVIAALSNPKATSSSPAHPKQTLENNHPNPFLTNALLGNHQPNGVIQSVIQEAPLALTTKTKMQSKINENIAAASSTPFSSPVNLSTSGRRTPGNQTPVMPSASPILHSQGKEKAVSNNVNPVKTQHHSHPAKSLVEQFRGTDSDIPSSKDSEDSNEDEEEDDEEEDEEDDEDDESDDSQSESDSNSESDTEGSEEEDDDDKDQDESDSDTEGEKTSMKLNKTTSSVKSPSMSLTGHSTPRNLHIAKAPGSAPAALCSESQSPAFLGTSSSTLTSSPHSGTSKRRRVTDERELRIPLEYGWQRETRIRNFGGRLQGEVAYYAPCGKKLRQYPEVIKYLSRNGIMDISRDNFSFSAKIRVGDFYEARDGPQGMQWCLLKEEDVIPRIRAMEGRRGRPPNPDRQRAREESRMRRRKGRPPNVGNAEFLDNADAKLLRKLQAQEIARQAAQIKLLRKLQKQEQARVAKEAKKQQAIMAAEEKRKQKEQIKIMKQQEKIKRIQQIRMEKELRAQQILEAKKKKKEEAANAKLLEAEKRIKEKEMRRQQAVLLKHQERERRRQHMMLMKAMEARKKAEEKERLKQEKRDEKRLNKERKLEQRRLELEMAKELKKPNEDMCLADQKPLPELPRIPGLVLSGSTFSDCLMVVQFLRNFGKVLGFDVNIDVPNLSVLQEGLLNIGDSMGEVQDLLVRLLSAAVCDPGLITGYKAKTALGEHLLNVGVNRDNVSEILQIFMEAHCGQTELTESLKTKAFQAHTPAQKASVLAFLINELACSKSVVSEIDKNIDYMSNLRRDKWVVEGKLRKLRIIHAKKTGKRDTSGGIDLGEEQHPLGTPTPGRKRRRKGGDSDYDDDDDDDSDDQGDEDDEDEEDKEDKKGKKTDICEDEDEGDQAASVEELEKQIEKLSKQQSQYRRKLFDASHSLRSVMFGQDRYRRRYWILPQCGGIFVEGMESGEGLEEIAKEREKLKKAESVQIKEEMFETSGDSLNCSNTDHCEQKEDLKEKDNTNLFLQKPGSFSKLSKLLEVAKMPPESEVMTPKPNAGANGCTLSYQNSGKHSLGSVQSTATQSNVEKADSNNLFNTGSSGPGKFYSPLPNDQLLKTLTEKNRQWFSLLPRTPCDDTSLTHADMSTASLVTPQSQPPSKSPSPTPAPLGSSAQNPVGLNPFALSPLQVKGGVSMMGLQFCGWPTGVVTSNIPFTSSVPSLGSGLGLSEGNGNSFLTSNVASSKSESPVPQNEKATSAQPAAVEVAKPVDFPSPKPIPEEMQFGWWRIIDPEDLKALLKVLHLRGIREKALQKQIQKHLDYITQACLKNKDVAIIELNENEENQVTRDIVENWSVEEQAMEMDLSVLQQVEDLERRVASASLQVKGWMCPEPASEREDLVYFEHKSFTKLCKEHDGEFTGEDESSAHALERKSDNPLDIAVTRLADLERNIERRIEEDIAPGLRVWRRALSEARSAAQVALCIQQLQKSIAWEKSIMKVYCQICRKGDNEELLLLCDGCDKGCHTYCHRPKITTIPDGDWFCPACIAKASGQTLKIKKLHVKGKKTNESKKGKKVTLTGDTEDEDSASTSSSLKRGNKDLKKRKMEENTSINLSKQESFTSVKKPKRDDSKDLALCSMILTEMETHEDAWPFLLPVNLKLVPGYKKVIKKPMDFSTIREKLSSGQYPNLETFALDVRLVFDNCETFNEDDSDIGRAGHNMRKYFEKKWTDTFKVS
Chain of BAZ2B PHD–BRD (human) (Q9UIF8 whole entry, the tested form may be a part): as above
Chain of BAZ2B PHD-BRD WT (Q9UIF8 whole entry, the tested form may be a part): as above

| Substance | Kd [1] [µM] | Kd [2] [µM] | Kd [3] [µM] | stoichiometry N [3] | Kd [4] [µM] | stoichiometry N [4] | Kd [5] [µM] | stoichiometry N [5] | Kd [6] [µM] | stoichiometry N [6] | Kd [7] [µM] | stoichiometry N [7] | further results |
| --- | --- | --- | --- | --- | --- | --- | --- | --- | --- | --- | --- | --- | --- |
| BAZ2B PHD WT (from UniProt Q9UIF8 1-2168) (domain or fragment) | – | – | 10.2 | 0.82 | 33.2 | 0.74 | 12.4 | 0.71 | 23.9 | 0.73 | 27 | 4.86 | – |
| histone H3(11–21aa) peptide (from UniProt P68431 12-22) | > 2000 | > 4000 | – | – | – | – | – | – | – | – | – | – | – |
| histone H3(1–21aa)K14ac peptide (from UniProt P68431 2-22) | – | – | – | – | – | – | – | – | – | – | – | – | Kd estimated from BRD residues [11]: > 8 µM; Kd estimated from PHD residues [11]: > 190 µM |

The next lines start with results.

| Kd [1] [µM] | Kd [2] [µM] | Kd [3] [µM] | stoichiometry N [3] | Kd [4] [µM] | stoichiometry N [4] | Kd [5] [µM] | stoichiometry N [5] | Kd [6] [µM] | stoichiometry N [6] | Kd [7] [µM] | stoichiometry N [7] | Substance | further results |
| --- | --- | --- | --- | --- | --- | --- | --- | --- | --- | --- | --- | --- | --- |
| 115 | 23.1 | – | – | – | – | – | – | – | – | – | – | histone H3(1–10aa) peptide (from UniProt P68431 2-11) | – |
| 54 | 5.78 | – | – | – | – | – | – | – | – | – | – | histone H3(1–21aa) peptide, unmodified (from UniProt P68431 2-22) | – |
| – | – | 88.4 | 1.94 | 148 | 1.59 | 123 | 1.76 | 130 | 1.89 | 50.4 | 2.92 | BAZ2B PHD-BRD WT (from UniProt Q9UIF8 1-2168) (domain or fragment) | Kd [8]: 6.99 µM; stoichiometry N [8]: 0.54; Kd [9]: 18.9 µM; stoichiometry N [9]: 0.45; Kd [10]: 26.9 µM; stoichiometry N [10]: 0.54 |
